The conditions of this series: Homo sapiens, pH 7.5, Fluorescence, Sodium phosphate 20mM, transition: 2, whole UniProt chain shown.

B1: wild type, Q5NV88 (protein)
chain: NFMLTQPHSVSESPGKTVTISCTRSSGSIASNYVQWYQQRPGSSPTTVIYEDNQRPSGVPDRFSGSIDSSSNSASLTISGLKTEDEADYYCQSYDSSN
One may read the Tm as the temperature at the midpoint of the melting transition. For the protein B1, under “25 °C, GdnHCl”, the “denaturant midpoint (higher = more stable)” value came out at 1.41 M and the unfolding free energy was 21.3 kJ/mol. In addition, under “Thermal”, the Tm came to 49.9 °C, the “unfolding enthalpy (calorimetric)” value was 361 kJ/mol and the unfolding free energy came to 21.8 kJ/mol.

The values above are taken from FireProtDB (doi:10.1016/j.jmb.2009.11.038).
